US7345026 (INSTITUT PASTEUR, dated 2008)

B1: gp100 457-466 epitopic peptide (peptide)
peptide: LLDGTATLRL
notes: synthetic peptide
B2: Tyrosinase 1-9 epitopic peptide (peptide)
peptide: MLLAVLYCL
notes: synthetic peptide
B3: Tyrosinase 368-376-D epitopic peptide (peptide)
peptide: YMDGTMSQV
notes: synthetic peptide; also called Tyrosinase.368-D
B4: Melan-A/MART-1 32-40 epitopic peptide (peptide)
peptide: ILTVILGVL
notes: synthetic peptide
B5: gp100 476-485 epitopic peptide (peptide)
peptide: VLYRYGSFSV
notes: synthetic peptide

Each binder was assayed against T1, HLA-A2.1 molecules on T2 (TAP-, HLA-A2.1+) cells (human) (assay: T2 cells, peptide binding by surface HLA-A2.1 (BB7.2) flow cytometry; ratio of concentrations reaching 20% of maximal binding).
T1 construct: MHC class I molecule to which peptides were added from outside; Surface HLA-A2.1 was detected with mAb BB7.2; also called H.A.-A2.1

Binder | RA (relative affinity)
B1 | 1.65 ratio to HIV 1 rt.476 reference peptide
B2 | > 60 ratio to HIV 1 rt.476 reference peptide
B3 | 2.27 ratio to HIV 1 rt.476 reference peptide
B4 | 21.1 ratio to HIV 1 rt.476 reference peptide
B5 | 10 ratio to HIV 1 rt.476 reference peptide
